Blank lines part the entries; values can stand above or below the binder they belong to.
Tests used:
Rac1 = Rac1 (human, UniProt P63000 1-192); assay: pull-down; (His)6-tagged GTPase held on nickel beads, 2 µg GST-tagged partner added; 20 mM HEPES pH 7.4, 150 mM NaCl, 5 mM MgCl2, 40 mM imidazole, 4 °C, 1 h; GST-tagged protein detected by anti-GST western blot; samples without effect of DC-Rhoin; settings: both partners purified
[1] = molecular target: T1, RalGPS1 (residues 24-289) (human, UniProt Q5JS13 24-289); assay: as above; settings: both partners purified
T1 construct: RalGPS1, human, residues 24-289; also called respective GEF of Ral-B (pairing inferred); source: E. coli BL21 (DE3), purified (GSTTrap, Superdex 75)
T1 sequence (Q5JS13 24-289): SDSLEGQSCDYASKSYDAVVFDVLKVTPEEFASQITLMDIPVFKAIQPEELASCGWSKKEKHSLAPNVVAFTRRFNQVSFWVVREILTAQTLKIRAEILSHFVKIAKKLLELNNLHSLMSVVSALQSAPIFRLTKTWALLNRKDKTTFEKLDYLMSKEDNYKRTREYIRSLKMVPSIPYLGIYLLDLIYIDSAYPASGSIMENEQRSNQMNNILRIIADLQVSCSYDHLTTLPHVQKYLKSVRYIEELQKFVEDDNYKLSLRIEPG

binding result (Rac1): binds
B1: Tiam1 (residues 1033-1406) (domain or fragment)
chain: RQLSDADKLRKVICELLETERTYVKDLNCLMERYLKPLQKETFLTQDELDVLFGNLTEMVEFQVEFLKTLEDGVRLVPDLEKLEKVDQFKKVLFSLGGSFLYYADRFKLYSAFCASHTKVPKVLVKAKTDTAFKAFLDAQNPRQQHSSTLESYLIKPIQRVLKYPLLLRELFALTDAESEEHYHLDVAIKTMNKVASHINEMQKIHEEFGAVFDQLIAEQTGEKKEVADLSMGDLLLHTSVIWLNPPASLGKWKKEPELAAFVFKTAVVLVYKDGSKQKKKLVGSHRLSIYEEWDPFRFRHMIPTEALQVRALPSADAEANAVCEIVHVKSESEGRPERVFHLCCSSPESRKDFLKSVHSILRDKHRRQLLKTE
notes: Tiam1, murine, residues 1033-1406; The text says only 'their respective GEFs'; that this construct was the GEF used with Rac1 is inferred from the list of constructs; also called respective GEF of Rac1 (pairing inferred); source: E. coli BL21 (DE3), purified (GSTTrap, Superdex 75)

binding result [1]: binds
B2: Ral-B (natural protein, human, UniProt P11234 1-206, looked up)
chain: MAANKSKGQSSLALHKVIMVGSGGVGKSALTLQFMYDEFVEDYEPTKADSYRKKVVLDGEEVQIDILDTAGQEDYAAIRDNYFRSGEGFLLVFSITEHESFTATAEFREQILRVKAEEDKIPLLVVGNKSDLEERRQVPVEEARSKAEEWGVQYVETSAKTRANVDKVFFDLMREIRTKKMSENKDKNGKKSSKNKKSFKERCCLL
notes: RalB, human, full length, in pET28a with a TEV site; source: E. coli BL21 (DE3), purified (HisTrap FF, Superdex 75)
